Reference: publication PMC7700883

Experiments:
[1] = molecular target: ubiquitin aminomethylcoumarin (UniProt P0CG48)
[2] = molecular target: GST-tagged ChlaDUB2_(58–339) (C282A) (Chlamydia trachomatis L2) (UniProt B0B999); assay: BLI
[3] = molecular target: GST-tagged ChlaDUB1_(130–401) (C345A) (Chlamydia trachomatis L2) (UniProt B0B9A0); assay: BLI

Substance | attenuation of Ub-AMC hydrolysis activity against wild type ChlaDUB2(58-339) [1] | Kd [2] | Kd [3]
ChlaDUB2_(58–339) W92A (from UniProt B0B999 58-339) (domain or fragment) | 50% | – | –
Lys63-linked diubiquitin (from UniProt P0CG48 1-76) (complex) | – | 88.9 µM | 117 µM
